# Data reported in the supplement of paper PMC10126150.
# ± gives the standard deviation of the averaged measurements.
# Test system: ATP
# Assay: switch fluorescence ratio, 500 uM ATP over buffer (Cy3 cluster intensity, sum of 5 cycles each) (fold (ratio)); higher = stronger signal-on switching upon ATP binding; sequences stand for … in TCGTCGGCAGCGTCAGATGTGTATAAGAGACAGTTTTTTTTTTTTTTTTTTTTTTTTT…TC
# Settings: aptamer strand: ATP DNA aptamer (quencher-CACCTGGGGGAGTATTGCGGAGGAAGG + anchor), 100 nM annealed; ATP concentration: 500 uM
# In short: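 Values give the fluorescence ratio for each switch-domain sequence, averaged from per-cluster ratios of summed target-cycle to summed buffer-cycle Cy3 intensity. The Cy3-labelled switching-strand clusters sat on a modified Illumina MiSeq flow-cell, were annealed to 100 nM quencher-labelled ATP aptamer, and were imaged in selection buffer, then after 15 min with 500 uM ATP at 22 °C. Five cycles ran with NaOH stripping and re-annealing between them, and clusters outside 100-1000 RFU were excluded.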
# 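Note: ATP exposure 15 min at 22 °C before imaging.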
row,Sequence,switch fluorescence ratio
1,CCCGGCGAGT,1.08 ± 0.038
2,CCCGGGGGAA,1.03 ± 0.014
3,CCCGGGTATG,1.03 ± 0.02
4,CCCGGGTTAG,1.08 ± 0.028
5,CCCTAATACG,1.76 ± 0.044
6,CCCTGGGGTA,1.07 ± 0.056
7,CCCTGTAGGA,1.04 ± 0.088
8,CCCTTGACGG,1.07 ± 0.14
9,CCCTTTTTTG,1.02 ± 0.05
10,CCGAAATTTT,1.05 ± 0.016
11,CCGAACACCT,1.219 ± 0.0037
12,CCGAAGGGGC,1.52 ± 0.083
13,CCGAATATGA,1.55 ± 0.079
14,CCGACATGGT,1.27 ± 0.11
15,CCGACGTAGG,2.494 ± 0.017
16,CCGAGGGCAG,2.75 ± 0.36
17,CCGAGTAGGG,1.074 ± 0.0031
18,CCGAGTGGAG,1.083 ± 0.0024
19,CCGAGTTATA,2.15 ± 0.013
20,CCGATCGTGG,2.86 ± 1.9
21,CCGATGTATA,1.35 ± 0.053
22,CCGATTCGGG,1.012 ± 0.0064
23,CCGATTGGTC,1.117 ± 0.0062
24,CCGATTTATA,1.013 ± 0.0052
25,CCGCATTTTT,2.19 ± 0.82
26,CCGCCCTATT,1.4 ± 0.024

row,Sequence,switch fluorescence ratio
1,CCGCGCACCG,1.73 ± 0.053
2,CCGCGGATGG,1.25 ± 0.15
3,CCGCGGCGGG,1.04 ± 0.028
4,CCGCGTCTGT,1.24 ± 0.032
5,CCGCTGGGCT,1.83 ± 0.056
6,CCGCTTTTAT,2.69 ± 0.48
7,CCGGAAACCA,1.01 ± 0.021
8,CCGGAAATTT,1.01 ± 0.019
9,CCGGAAGGGC,1.84 ± 0.69
10,CCGGAGTGGA,2.56 ± 1.3
11,CCGGATTATG,1.05 ± 0.016
12,CCGGCCCACA,1.266 ± 0.0065
13,CCGGCCCCGG,1.68 ± 0.028
14,CCGGCGCGTG,1.06 ± 0.1
15,CCGGCGGGAG,1.099 ± 0.0064
16,CCGGCTGGGT,0.9584 ± 0.0069
17,CCGGGAACGC,1.29 ± 0.024
18,CCGGGAGTAC,2.14 ± 0.55
19,CCGGGAGTGT,1.12 ± 0.013
20,CCGGGCCTGC,1.11 ± 0.014
21,CCGGGCGATG,1.6 ± 0.1
22,CCGGGCGGAT,1.02 ± 0.0099
23,CCGGGGAGGT,1.06 ± 0.1
24,CCGGGGAGTC,1.04 ± 0.044
25,CCGGGGGGGT,1.09 ± 0.077
26,CCGGGGGTCA,1.01 ± 0.039

row,Sequence,switch fluorescence ratio
1,CCGGGGTGGG,0.9964 ± 0.0055
2,CCGGGGTGTT,1.22 ± 0.3
3,CCGGGTAAAA,1.03 ± 0.057
4,CCGGGTAATG,1.27 ± 0.028
5,CCGGGTCGGG,1.006 ± 0.0049
6,CCGGGTCGGT,0.9554 ± 0.0036
7,CCGGGTGACC,1.143 ± 0.0068
8,CCGGGTGTGG,1.03 ± 0.028
9,CCGGGTTTCG,0.996 ± 0.035
10,CCGGTAAGGA,0.994 ± 0.015
11,CCGGTATTGA,0.994 ± 0.017
12,CCGGTCCCTA,1 ± 0.011
13,CCGGTGCGTG,1.13 ± 0.14
14,CCGGTGGGGA,1.12 ± 0.064
15,CCGGTGTCTG,1.05 ± 0.09
16,CCGGTTATGA,1.04 ± 0.02
17,CCGGTTGCAT,4.54 ± 1.9
18,CCGGTTTTTA,0.996 ± 0.01
19,CCGTAAGCAG,1.96 ± 0.034
20,CCGTAATTGA,2.75 ± 0.16
21,CCGTACGTTT,1.24 ± 0.024
22,CCGTATAATG,0.98 ± 0.034
23,CCGTATGTGC,1.751 ± 0.0087
24,CCGTCAAGAG,4.35 ± 0.16
25,CCGTGAGGTG,1.135 ± 0.01
26,CCGTGAGTTT,1.07 ± 0.04

row,Sequence,switch fluorescence ratio
1,CCGTGCAGTT,2.12 ± 0.82
2,CCGTGGGTTT,1.059 ± 0.0031
3,CCGTGTTGCG,1.01 ± 0.022
4,CCGTGTTTTT,0.988 ± 0.032
5,CCGTTAGCGG,1.1074 ± 0.00044
6,CCGTTATCTC,2.81 ± 1
7,CCGTTATTCT,1.35 ± 0.27
8,CCGTTGTGCC,1.022 ± 0.0018
9,CCGTTTCGTG,0.9948 ± 0.0046
10,CCGTTTGCAG,1.13 ± 0.15
11,CCGTTTGGCA,1.15 ± 0.022
12,CCGTTTTTTG,1 ± 0.032
13,CCTAAGAATG,1.043 ± 0.0035
14,CCTACATTG,1 ± 0.02
15,CCTAGAGAGG,1.031 ± 0.006
16,CCTAGGGGAA,1.02 ± 0.022
17,CCTAGTACCT,1.19 ± 0.05
18,CCTAGTTGAA,1.03 ± 0.015
19,CCTAGTTTTT,0.997 ± 0.023
20,CCTATAAAGG,1.03 ± 0.04
21,CCTATACAAC,1.11 ± 0.044
22,CCTATCACAA,3.47 ± 0.46
23,CCTATCCCTG,1.08 ± 0.058
24,CCTATGGGTT,1.05 ± 0.015
25,CCTATTGGGG,1.02 ± 0.037
26,CCTCAAAGCT,1.794 ± 0.0088

row,Sequence,switch fluorescence ratio
1,CCTCAGAGGG,1.24 ± 0.22
2,CCTCAGGGAA,1.2 ± 0.14
3,CCTCATAGTC,1.413 ± 0.0066
4,CCTCCCTTTT,2.2 ± 0.4
5,CCTCGCGGGA,1.8 ± 0.028
6,CCTCGGACTT,1.57 ± 0.48
7,CCTCGGTTTT,1.24 ± 0.013
8,CCTCGTGTTG,1.02 ± 0.022
9,CCTCGTTATT,1.27 ± 0.027
10,CCTCTATTCT,1.1 ± 0.026
11,CCTCTGATCT,1.38 ± 0.1
12,CCTCTGATTT,1.47 ± 0.3
13,CCTCTGGTTT,2.84 ± 0.37
14,CCTGAATTAT,0.9941 ± 0.0012
15,CCTGAGGATG,1.03 ± 0.015
16,CCTGAGGTGT,1.47 ± 0.18
17,CCTGAGTGTA,1 ± 0.024
18,CCTGAGTTTG,1.01 ± 0.035
19,CCTGCAGGGG,1.094 ± 0.0051
20,CCTGCGGGGA,1.31 ± 0.29
21,CCTGGAGCGG,1.19 ± 0.037
22,CCTGGAGCTC,1.35 ± 0.02
23,CCTGGAGGTT,0.964 ± 0.022
24,CCTGGATTTC,1.01 ± 0.077
25,CCTGGCAAGT,1.87 ± 0.078
26,CCTGGCAGAG,1.22 ± 0.048

row,Sequence,switch fluorescence ratio
1,CCTGGCAGCG,1.05 ± 0.03
2,CCTGGGCCGC,1.65 ± 0.081
3,CCTGGGCCGG,1.06 ± 0.058
4,CCTGGGCTGT,1.52 ± 0.48
5,CCTGGGGGAT,1.75 ± 0.43
6,CCTGGGGGC,1.1 ± 0.056
7,CCTGGGGGCA,1.04 ± 0.0089
8,CCTGGGGGGA,1.02 ± 0.059
9,CCTGTAGGTA,1.009 ± 0.0069
10,CCTGTGCGGA,1.534 ± 0.013
11,CCTGTGGCAC,1.21 ± 0.054
12,CCTGTGTAAT,3.18 ± 0.053
13,CCTTAAGACT,1.07 ± 0.028
14,CCTTAAGGCG,1.023 ± 0.0026
15,CCTTAATTTG,1.007 ± 0.0089
16,CCTTAGTTGG,1.02 ± 0.056
17,CCTTATGGCG,0.996 ± 0.076
18,CCTTATGGGA,0.982 ± 0.026
19,CCTTCACCTT,1.077 ± 0.0017
20,CCTTCCCGGG,1.59 ± 0.0072
21,CCTTCCTGTG,3.62 ± 0.024
22,CCTTCGAGG,1.15 ± 0.2
23,CCTTGAAGGT,0.984 ± 0.0091
